Like-named read-outs stand apart in the source and are kept apart here.

In assay [1] the target is IgG1 heavy chain with CH3 construct 69 (L351D, L368E) (human) [IgG part: P01857]. Nature of the assay: native MS (peak height); Tr. 8, 1:1:2; CC = 1025-KK with 1025-DE.
Assay [2] concerns the target IgG1 heavy chain with CH3 construct 72 (L351D, R355D) (human) [IgG part: P01857]. Nature of the assay: native MS; combination 8 co-expressed (A: VH MF1337, B: VH MF1122).
In assay [3] the target is IgG1 heavy chain with CH3 construct 68 (T366K, L351K) (human) [IgG part: P01857]. Described as above.
The target of assay [4] is IgG1 heavy chain with CH3 construct 69 (L351D, L368E) (human) [IgG part: P01857]. Nature of the assay: native MS (peak height); Tr. 3, 1:2:1; AB = 1337-KK with 1122-DE.
Assay [5] concerns the target IgG1 heavy chain with CH3 construct 68 (T366K, L351K) (human) [IgG part: P01857]. Nature of the assay: native MS; combination 11 co-expressed (A: VH MF1337, B: VH MF1122).
For assay [6], the target named is IgG1 heavy chain with CH3 construct 71 (L351D, Y349E) (human) [IgG part: P01857]. Described as above.
Assay [7] has as its target IgG1 heavy chain with CH3 construct 69 (L351D, L368E) (human) [IgG part: P01857]. Nature of the assay: native MS (peak height); Tr. 11; by a transfection error 1025-DE stood with 1337-KK instead of 1122-KK.
Assay [8] has the same target. Nature of the assay: native MS (peak height); Tr. 3, 1:2:1; BC = 1025-KK with 1122-DE.
Assay [9] has the same target. Kind of assay: native MS (peak height); transfection #11 of Table 24; AB = A/68 with B/69.
For assay [10] the target is unchanged. Kind of assay: native MS (peak height); Tr. 4, 1:1:2; AC = 1337-KK with 1025-DE.
Assay [11] shares this target. Nature of the assay: native MS (peak height); Tr. 4, 1:1:2; BC = 1122-KK with 1025-DE.
Assay [12] concerns the target IgG1 heavy chain with CH3 construct 75 (L351D, Y349D, R355D) (human) [IgG part: P01857]. Kind of assay: native MS; combination 9 co-expressed (A: VH MF1337, B: VH MF1122).
Assay [13] concerns the target IgG1 heavy chain with CH3 construct 68 (T366K, L351K) (human) [IgG part: P01857]. Described as above.
For assay [14], the target named is IgG1 heavy chain with CH3 construct 69 (L351D, L368E) (human) [IgG part: P01857]. Kind of assay: native MS (peak height); Tr. 2, 2:1:1; AB = 1122-KK with 1337-DE.
For assay [15] the target is unchanged. Kind of assay: native MS (peak height); Tr. 6, 1:1:2; AB = 1337-KK with 1122-DE.
Assay [16] addresses IgG1 heavy chain with CH3 construct 68 (T366K, L351K) (human) [IgG part: P01857]. Nature of the assay: native MS; combination 10 co-expressed (A: VH MF1337, B: VH MF1122).
For assay [17], the target named is IgG1 heavy chain with CH3 construct 74 (L351D, Y349D) (human) [IgG part: P01857]. Described as above.
Assay [18] deals with IgG1 heavy chain with CH3 construct 69 (L351D, L368E) (human) [IgG part: P01857]. Nature of the assay: native MS (peak height); Tr. 7, 2:1:1; AA = 1337-KK with 1337-DE.
Assay [19] has the same target. Nature of the assay: native MS (peak height); Tr. 1, 2:1:1; AC = 1337-KK with 1025-DE.
The target is the same in assay [20]. Kind of assay: native MS (peak height); Tr. 9, 1:1; 1337-KK with 1122-DE.
The target is the same in assay [21]. Nature of the assay: native MS; combination 12 co-expressed (A: VH MF1337, B: VH MF1122).
For assay [22], the target named is IgG1 heavy chain with CH3 construct 68 (T366K, L351K) (human) [IgG part: P01857]. The assay is described as above.
Assay [23] has as its target IgG1 heavy chain with CH3 construct 69 (L351D, L368E) (human) [IgG part: P01857].
Assay [24] shares this target. Nature of the assay: native MS (peak height); Tr. 5, 2:1:1; AA = 1337-KK with 1337-DE.
Assay [25] has the same target. Nature of the assay: native MS (peak height); Tr. 7, 2:1:1; AC = 1337-KK with 1025-DE.
Assay [26] has the same target. Nature of the assay: native MS (peak height); Tr. 2, 2:1:1; AC = 1025-KK with 1337-DE.
For assay [27] the target is unchanged. Nature of the assay: native MS (peak height); Tr. 1, 2:1:1; AB = 1337-KK with 1122-DE.
For assay [28] the target is unchanged. Kind of assay: native MS (peak height); Tr. 8, 1:1:2; AC = 1337-KK with 1025-DE.
Assay [29] has the same target. Kind of assay: native MS (peak height); Tr. 6, 1:1:2; BB = 1122-KK with 1122-DE.
Assay [30] has the same target. Kind of assay: native MS (peak height); Tr. 5, 2:1:1; AB = 1337-KK with 1122-DE.
Assay [31] shares this target. Nature of the assay: native MS (peak height); Tr. 10, 1:1; 1337-KK with 1025-DE.
Assay [32] deals with IgG1 heavy chain with CH3 construct 68 (T366K, L351K) (human) [IgG part: P01857]. Kind of assay: SDS-PAGE of protein A-purified supernatant; construct expressed alone.
The target is the same in assay [33]. Kind of assay: native MS; combination 7 co-expressed (A: VH MF1337, B: VH MF1122).
Assay [34] addresses IgG1 heavy chain with CH3 construct 63 (L351D) (human) [IgG part: P01857]. The description is as above.
Assay [35] has as its target IgG1 heavy chain with CH3 construct 69 (L351D, L368E) (human) [IgG part: P01857]. Nature of the assay: native MS (peak height); Tr. 2; AA = DE-DE homodimer of 1337-DE.
Assay [36] shares this target. Nature of the assay: native MS; combination 3 co-expressed (A: VH MF1337, B: VH MF1122).
Assay [37] concerns the target IgG1 heavy chain with CH3 construct 68 (T366K, L351K) (human) [IgG part: P01857]. Nature of the assay: batch test before the pK study; 1516:1337 (MF1516 on DE-side, MF1337 on KK-side).
The target of assay [38] is IgG1 heavy chain with CH3 construct 2 (K392D, K409D) (human) [IgG part: P01857]. Nature of the assay: native MS (peak height); transfection #9 of Table 24; crossed dimer B/69 with D/2.
The target of assay [39] is IgG1 heavy chain with CH3 construct 69 (L351D, L368E) (human) [IgG part: P01857]. Nature of the assay: native MS (peak height); Tr. 4; CC = DE-DE homodimer of 1025-DE.
Assay [40] has the same target. Kind of assay: SDS-PAGE of protein A-purified supernatant; construct expressed alone.
Assay [41] has the same target. Kind of assay: native MS of gel filtrated sample 1516:1337 (MF1516 on DE-side).

Take “IgG1 heavy chain with CH3 construct 68 (T366K, L351K) (from UniProt P01857-1)”: the Observed species (%) was 40% in [1]; 54% in [4]; above 98% in assay [7]; 46% in assay [8]; 66% in assay [10]; 33% in assay [11]. Besides, the Observed species (%) in [14] is 40%; in [15] it was 75%; in [18], 46%; in assay [19], 57%; in [20], above 98%; in assay [24], 57%. For the same substance, the Observed species (%) was 54% in assay [25]; 54% in assay [26]; 43% in [27]; 60% in assay [28]; 25% in assay [29]; 43% in [30]. This substance also had an Observed species (%) in [31] above 98%. Besides, the % AB found is 79% in [2]; 95% in assay [6]; 93% in [12]; 95% in assay [17]; 92% in assay [21]; 77% in assay [34]. The % AA found is 0% in assay [3]; 1% in [5]; 1% in [13]; 1% in assay [16]; 0% in [22]; 0% in [33]. For the same substance, the percent of species in the mixture is 33% in [9] and 30% in [23]. Moreover, the % IgG in assay [32] came to 34.7%. The same substance returned a % half molecule in assay [32] of 65.3%.

On to “IgG1 heavy chain with CH3 construct 69 (L351D, L368E) (from UniProt P01857-1)”, for which the Observed species (%) in [35] is 6%; in assay [39], 1%. Besides, the % BB found in assay [36] and in [21] was 0% in each case. Also, the percent bispecific IgG in assay [37] is above 90%. Besides, the percent of species in the mixture in assay [38] was 3%. In assay [40], the % IgG worked out at 83.7%. This substance also displayed a % half molecule in assay [40] of 16.3%. In addition, the percent of species in the sample in assay [41] turned out to be 2%.

(Values after patent publication US20150139996A1.)
